Measured values published in US7888090B2, “Mutants of O6-alkylguanine-DNA alkyltransferase” (Ecole Polytechnique Federale de Lausanne, priority 2004, dated 2011).
Substitutions are numbered along the chain they refer to.

B1: truncated PGEG-hAGT: PGEG-hAGT (Asn157Gly, Ser159Glu) truncated after codon 182 (protein, UniProt P16455 1-207, looked up, variant N157G S159E del183-207)
Methylated-DNA--protein-cystei …: MDKDCEMKRTTLDSPLGKLELSGCEQGLHEIKLLGKGTSAADAVEVPAPAAVLGGPEPLMQCTAWLNAYFHQPEAIEEFPVPALHHPVFQQESFTRQVLWKLLKVVKFGEVISYQQLAALAGNPKAARAVGGAMRGNPVPILIPCHRVVCSSGAVGGYEGGLAVKEWLLAHEGHRLGKPGLG
B2: Gln115Ser, Gln116His, Cys150Asn, Ser151Ile, Ser152Asn, Asn157Gly, Ser159Glu: hAGT mutant with the listed mutations, selected by phage display (protein, UniProt P16455 1-207, looked up, variant Q115S Q116H C150N S151I S152N N157G S159E)
Methylated-DNA--protein-cystei …: MDKDCEMKRTTLDSPLGKLELSGCEQGLHEIKLLGKGTSAADAVEVPAPAAVLGGPEPLMQCTAWLNAYFHQPEAIEEFPVPALHHPVFQQESFTRQVLWKLLKVVKFGEVISYSHLAALAGNPKAARAVGGAMRGNPVPILIPCHRVVNINGAVGGYEGGLAVKEWLLAHEGHRLGKPGLGGSSGLAGAWLKGAGATSGSPPAGRN
B3: Cys62Ala, Lys125Ala, Ala127Thr, Arg128Ala, Asn157Gly, Ser159Glu: hAGT mutant with the listed mutations (protein, UniProt P16455 1-207, looked up, variant C62A K125A A127T R128A N157G S159E)
Methylated-DNA--protein-cystei …: B2 Methylated-DNA--protein-cystei … with C62A, S115Q, H116Q, K125A, A127T, R128A, N150C, I151S, N152S
B4: Lys8Thr, Thr127Ala, Ala154Thr, His174Arg: AGT mutant having all mutations of AGTM and additionally those listed (protein, UniProt P16455 1-207, looked up, variant K8T C62A Q115S Q116H K125A R128A G131K G132T M134L R135S C150N S151I S152N A154T N157G S159E H174R del183-207)
Methylated-DNA--protein-cystei …: MDKDCEMTRTTLDSPLGKLELSGCEQGLHEIKLLGKGTSAADAVEVPAPAAVLGGPEPLMQATAWLNAYFHQPEAIEEFPVPALHHPVFQQESFTRQVLWKLLKVVKFGEVISYSHLAALAGNPAAAAAVKTALSGNPVPILIPCHRVVNINGTVGGYEGGLAVKEWLLAHEGRRLGKPGLG
B5: Lys104Glu, Thr127Ala, Ala154Thr: AGT mutant having all mutations of AGTM and additionally those listed (protein, UniProt P16455 1-207, looked up, variant C62A K104E Q115S Q116H K125A R128A G131K G132T M134L R135S C150N S151I S152N A154T N157G S159E del183-207)
Methylated-DNA--protein-cystei …: B4 Methylated-DNA--protein-cystei … with T8K, K104E, R174H
B6: Lys32lle, Leu33Phe, Gly182Val: AGT mutant having all mutations of AGTM and additionally those listed (protein, UniProt P16455 1-207, looked up, variant K32I L33F C62A Q115S Q116H K125A A127T R128A G131K G132T M134L R135S C150N S151I S152N N157G S159E G182V del183-207)
Methylated-DNA--protein-cystei …: B4 Methylated-DNA--protein-cystei … with T8K, K32I, L33F, A127T, T154A, R174H, G182V
B7: Lys32lle, Leu33Phe, Asn150Gly, lle151Gly, Asn152Asp, Ala154Asp: AGT mutant having all mutations of AGTM and additionally those listed (protein, UniProt P16455 1-207, looked up, variant K32I L33F C62A Q115S Q116H K125A A127T R128A G131K G132T M134L R135S C150G S151G S152D A154D N157G S159E del183-207)
Methylated-DNA--protein-cystei …: B4 Methylated-DNA--protein-cystei … with T8K, K32I, L33F, A127T, N150G, I151G, N152D, T154D, R174H
B8: Asn150Glu, lle151Ser, Asn152His, Ala154Lys: AGT mutant having all mutations of AGTM and additionally those listed (protein, UniProt P16455 1-207, looked up, variant C62A Q115S Q116H K125A A127T R128A G131K G132T M134L R135S C150E S152H A154K N157G S159E del183-207)
Methylated-DNA--protein-cystei …: B4 Methylated-DNA--protein-cystei … with T8K, A127T, N150E, I151S, N152H, T154K, R174H
B9: Ala154Thr: AGT mutant having all mutations of AGTM and additionally those listed (protein, UniProt P16455 1-207, looked up, variant C62A Q115S Q116H K125A A127T R128A G131K G132T M134L R135S C150N S151I S152N A154T N157G S159E del183-207)
Methylated-DNA--protein-cystei …: B4 Methylated-DNA--protein-cystei … with T8K, A127T, R174H
B10: Asn150Val, lle151Ser, Asn152Arg, Gly153Asp, Ala154Asp: AGT mutant having all mutations of AGTM and additionally those listed (protein, UniProt P16455 1-207, looked up, variant C62A Q115S Q116H K125A A127T R128A G131K G132T M134L R135S C150V S152R G153D A154D N157G S159E del183-207)
Methylated-DNA--protein-cystei …: B4 Methylated-DNA--protein-cystei … with T8K, A127T, N150V, I151S, N152R, G153D, T154D, R174H
B11: Asn150Glu, lle151Gly, Asn152Glu, Ala154Arg: AGT mutant having all mutations of AGTM and additionally those listed (protein, UniProt P16455 1-207, looked up, variant C62A Q115S Q116H K125A A127T R128A G131K G132T M134L R135S C150E S151G S152E A154R N157G S159E del183-207)
Methylated-DNA--protein-cystei …: B4 Methylated-DNA--protein-cystei … with T8K, A127T, N150E, I151G, N152E, T154R, R174H
B12: Lys32lle, Leu33Phe, Ala154Thr: AGT mutant having all mutations of AGTM and additionally those listed (protein, UniProt P16455 1-207, looked up, variant C62A Q115S Q116H K125A A127T R128A G131K G132T M134L R135S C150N S151I S152N N157G S159E del183-207 K32I L33F A154T)
Methylated-DNA--protein-cystei …: B4 Methylated-DNA--protein-cystei … with T8K, K32I, L33F, A127T, R174H
B13: Asn150Glu, lle151Gly, Asn152Arg, Gly153Glu, Ala154Arg: AGT mutant having all mutations of AGTM and additionally those listed (protein, UniProt P16455 1-207, looked up, variant C62A Q115S Q116H K125A A127T R128A G131K G132T M134L R135S C150E S151G S152R G153E A154R N157G S159E del183-207)
Methylated-DNA--protein-cystei …: B4 Methylated-DNA--protein-cystei … with T8K, A127T, N150E, I151G, N152R, G153E, T154R, R174H
B14: Asn150Glu, lle151Gly, Asn152Trp, Gly153Asn, Ala154Glu: AGT mutant having all mutations of AGTM and additionally those listed (protein, UniProt P16455 1-207, looked up, variant C62A Q115S Q116H K125A A127T R128A G131K G132T M134L R135S C150E S151G S152W G153N A154E N157G S159E del183-207)
Methylated-DNA--protein-cystei …: B4 Methylated-DNA--protein-cystei … with T8K, A127T, N150E, I151G, N152W, G153N, T154E, R174H
B15: Asn150Val, lle151Asn, Asn152Asp, Gly153Leu, Ala154Asp: AGT mutant having all mutations of AGTM and additionally those listed (protein, UniProt P16455 1-207, looked up, variant C62A Q115S Q116H K125A A127T R128A G131K G132T M134L R135S C150V S151N S152D G153L A154D N157G S159E del183-207)
Methylated-DNA--protein-cystei …: B4 Methylated-DNA--protein-cystei … with T8K, A127T, N150V, I151N, N152D, G153L, T154D, R174H

Assay: Activity assay with biotinylated O^6-benzylguanine (BG-Bt), Western blotting
Assay type: biochemical
Conditions: statement in words
Experimental: Activity towards O^6-benzylguanine substrates is measured as described by Juillerat et al., Chem Biol 10:313-317, 2003.
Activity assay: Purified mutated GST-AGT is incubated in vitro with a biotinylated O^6-benzylguanine (BG-Bt, substance 3a of Juillerat et al., Chem Biol 10:313-317, 2003). In a total reaction volume of 80 […]I, 0.2 µM GST-AGT are incubated with 1 µM substrate in 50 mM HEPES pH 7.2 and 1 mM DTT at room temperature. At several points of time an aliquot is quenched with 1 mM O^6-benzylguanine (Sigma) in SDS-Laemmli buffer and subjected to Western blotting analysis (neutravidin-peroxidase conjugate (PIERCE), Renaissance reagent plus (NEN)). The intensity of the corresponding bands is quantified by a Kodak Image Station 440.

Molecule | activity towards O^6-benzylguanine substrates
B1 | retains activity
B2 | retains activity
B3 | retains activity

Assay: BG-Cy3 activity assay (reaction rate of AGT mutants)
Assay type: biochemical
Conditions: divided by value for wild type hAGT; periplasmic extracts (x.)
Experimental: Reactivity against DNA-based substrates measured with a BG-Cy3 assay: BG-Cy3 is prepared by reacting the previously described O^6-(4-aminomethyl-benzyl)guanine (Keppler et al., NatureBiotechnol. 21:86-89, 2003) with the commercially available N-hydroxysuccinimide ester of Cy3, (Cy3-NHS, Amersham). The coupling reaction is performed at ambient temperature in N,N-dimethylformamide in the presence of 1 eq. of triethylamine. The BG-Cy3 conjugate is purified by reversed-phase HPLC on a C18-column by using linear gradients from 0.1% trifluoroacetic acid to acetonitrile. After solvent evaporation BG-Cy3 is dissolved in dimethyl sulfoxide and stored at −20° C. For measuring the reactivity with DNA-based substrates, a reaction mixture containing different concentrations (0 to 5 µM) of oligonucleotide SEQ ID NO:2 (modified in position 14), GST-AGT fusion protein at 0.2 µM and BG-Cy3 at […] in reaction buffer (50 mM HEPES, pH 7.2, 1 mM DTT, 200 mg/ml BSA) is incubated in microtiterplates. Fluorescence of the Cy3 derivative (excitation 519 nm, emission at 572 nm) is measured on a Spectramax Gemini plate reader (Molecular Devices).
The amplified products are cloned in fusion to the g3 gene of filamentous phage in the vector pAK100 via SfiI restriction sites. The resulting gene libraries are used for phage display as described under Example 4. The mutants of the libraries are selected with 5 to 50 nM of BG-Bt for 10 min. Selected mutants are subcloned into pGEX using the primers SEQ ID NO:3 and SEQ ID NO:13. The reaction rate of mutant AGTs is determined as described in Example 6, Reactivity against DNA-based substrates (BG-Cy3 assay).
For the activity assay purified GST fusion proteins were used for mutants marked with “p.” (prepared as described under Example 1); periplasmic extracts were used for mutants marked with “x.” (prepared as described under Example 2).

Molecule | Relative reaction rate
B4 | 15.66
B5 | 12.34
B6 | 9.48

Same assay, conditions: divided by value for wild type hAGT; purified GST fusion proteins (p.)

Molecule | Relative reaction rate
B7 | 45.45
B8 | 15.43
B9 | 14.90
B10 | 21.26
B11 | 18.42
B12 | 33.89
B13 | 11.20
B14 | 11.97
B15 | 15.67

Assay: Expression yield of soluble GST-AGT fusion protein
Design: species or system E. coli
Conditions: comparator not stated
Experimental: Expression yield is measured in E. coli or in any other of the standard production cells for genetically modified proteins, e.g. yeast, or preferably insect cells, CHO cells or HeLa cells. For quantifying expression yield, AGT fusion proteins may be chosen such that the fusion partner allows easy purification and quantification. For example, expression yield in E. coli is determined by measuring and comparing the yield of soluble and insoluble GST-wild type AGT fusion protein and GST-mutant AGT fusion protein from parallel E. coli expression cultures. Samples of the soluble fractions and insoluble fractions (i.e. the inclusion bodies) after cell lysis are subjected to SDS-PAGE, and the band staining intensities of the corresponding AGT fusion proteins are compared. Soluble protein is quantified after purification of the fusion protein from cell extracts by affinity chromatography (e.g. for GST-AGT fusion proteins by glutathione sepharose) by subjecting the purified fractions to a protein concentration assay (Bradford, Anal Biochem 72:248-54, 1976). The expression yield of similar proteins in the soluble fraction (difference in point mutations) can be used as a measure for protein stability in the unpurified as well as the purified state (Ohage et al., J Mol Biol 291:1119-1128, 1999; Wirtz et al., Protein Sci 8: 2245-50, 1999). Therefore, this is taken as a measure of folding stability and aggregation tendency.
Protein expression from this vector is carried out in E. coli strain BL21. An exponentially growing culture is induced with 0.5 mM IPTG, and the expression is carried out for 3.5 h at 24° C.
Purification: The harvested cells are resuspended in a buffer containing 50 mM phosphate, 0.5 M NaCl, 1 mM DTT, supplemented with 1 mM PMSF and 2 μg/ml aprotinin, and disrupted by lysozyme and sonification. The cell debris are separated by centrifugation at 40000×g. The extract is applied to pre-equilibrated glutathione sepharose (Amersham) which is then washed with 20 bed volumes (50 mM phosphate, 0.5 M NaCl, 1 mM DTT). The mutated GST-AGT fusion protein is eluted with 10 mM reduced glutathione in 50 mM Tris·HCl pH 7.9. The purified protein is dialyzed against 50 mM HEPES pH 7.2; 1 mM DTT; 30% glycerol and then stored at −80° C.
Determination of protein yield: Purity and relative amounts of the GST-AGT fusion proteins are compared by running samples on SDS-PAGE. UV spectra of the pure fractions are recorded using a Perkin Elmer Lambda 10. For protein samples containing no significant amount of DNA, the extinction at 280 nm as a measure of protein content is compared to that of wild type hAGT or PGEG-hAGT that were purified under the same conditions.

Molecule | expression yield in E. coli
B2 | substantially increased expression yield
